Laboratory results published in publication PMC2897846.

Target: CD40 on human B cells (human (endogenous in B cells from PBMC)) (UniProt P25942)
UniProt P25942, sequence (P25942 21-277): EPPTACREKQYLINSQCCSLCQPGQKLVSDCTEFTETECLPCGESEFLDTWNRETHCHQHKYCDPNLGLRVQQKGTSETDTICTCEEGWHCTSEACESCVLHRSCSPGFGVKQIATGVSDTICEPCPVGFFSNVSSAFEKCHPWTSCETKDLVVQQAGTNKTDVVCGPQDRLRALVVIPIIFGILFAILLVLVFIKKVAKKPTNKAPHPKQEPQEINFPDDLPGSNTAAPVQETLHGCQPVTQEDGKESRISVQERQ

Work on “CD40 ligand (CD40L, CD154) incorporated into HIV virions (from UniProt P29965 1-261)” yielded an intracellular AID protein (flow cytometry) in CD19+ B cells exposed to CD40L+ HIV NL4-3 for three days (% of CD19+ cells) of 2.11.
